To fix the notation:
T1: RING1B (H. sapiens, UniProt Q99496 1-336)
T1 sequence: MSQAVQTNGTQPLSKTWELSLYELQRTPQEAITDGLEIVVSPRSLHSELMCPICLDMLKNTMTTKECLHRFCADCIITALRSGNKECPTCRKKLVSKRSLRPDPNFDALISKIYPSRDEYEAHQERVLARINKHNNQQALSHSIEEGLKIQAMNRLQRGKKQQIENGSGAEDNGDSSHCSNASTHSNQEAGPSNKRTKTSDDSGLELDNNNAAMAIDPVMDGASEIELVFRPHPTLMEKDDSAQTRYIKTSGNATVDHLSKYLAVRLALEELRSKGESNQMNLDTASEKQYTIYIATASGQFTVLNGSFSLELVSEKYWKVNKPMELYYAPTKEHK

B1: MBP-tagged BMI1 (natural protein)
chain: MHRTTRIKITELNPHLMCVLCGGYFIDATTIIECLHSFCKTCIVRYLETSKYCPICDVQVHKTRPLLNIRSDKTLQDIVYKLVPGLFKNEMKRRRDFYAAHPSADAANGSNEDRGEVADEDKRIITDDEIISLSIEFFDQNRLDRKVNKDKEKSKEEVNDKRYLRCPAAMTVMHLRKFLRSKMDIPNTFQIDVMYEEEPLKDYYTLMDIAYIYTWRRNGPLPLKYRVRPTCKRMKISHQRDGLTNAGELESDSGSDKANSPAGGIPSTSSCLPSPSTPVQSPHPQFPHISSTMNGTSNSPSGNHQSSFANRPRKSSVNGSSATSSG
B2: CBX7 (natural protein)
chain: MELSAIGEQVFAVESIRKKRVRKGKVEYLVKWKGWPPKYSTWEPEEHILDPRLVMAYEEKEERDRASGYRKRGPKPRRLLLQESAAPDVVQTPGDWEPMEQAPEEEAEADLTNGPPPWTPTLPSSEVTVTDITANSVTVTFREAQAAEGFFRDRNEKL
B3: CBX7(F11A) (natural protein)
chain: MELSAIGEQVAAVESIRKKRVRKGKVEYLVKWKGWPPKYSTWEPEEHILDPRLVMAYEEKEERDRASGYRKRGPKPRRLLLQESAAPDVVQTPGDWEPMEQAPEEEAEADLTNGPPPWTPTLPSSEVTVTDITANSVTVTFREAQAAEGFFRDRNEKL

From doi:10.1101/2023.12.02.569699 (bioRxiv, 2023) come the findings set out here.

The target in this experiment is T1, RING1B. Kind of experiment: SEC.
On to B1, for which the binding result was “binds”. The entry for B2 is “binds”; for B3 it is “binds”.
